Substitutions are numbered along the chain they refer to.

Data set [1] has as its target T1, MBP-TT2 (Arabidopsis thaliana) (UniProt Q9FJA2).
T1 sequence: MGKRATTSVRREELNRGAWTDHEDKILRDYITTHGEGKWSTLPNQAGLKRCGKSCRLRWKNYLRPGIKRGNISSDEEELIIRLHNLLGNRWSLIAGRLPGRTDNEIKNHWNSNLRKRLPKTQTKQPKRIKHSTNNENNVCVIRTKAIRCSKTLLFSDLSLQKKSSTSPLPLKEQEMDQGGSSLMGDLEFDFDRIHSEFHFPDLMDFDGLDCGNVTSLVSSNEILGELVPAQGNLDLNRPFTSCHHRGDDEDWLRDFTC
The experiment in a line: EMSA. As to conditions: LightShift Chemiluminescent EMSA kit (Pierce); buffer, salt, pH and temperature not stated.

Data set [2] deals with T1, MBP-TT2 (Arabidopsis thaliana). The experiment in a line: competition. As to conditions: LightShift Chemiluminescent EMSA kit (Pierce); buffer, salt, pH and temperature not stated.
Data set [3] concerns the target T2, MBP-TT2;MBP-TTG1 (Arabidopsis thaliana;Arabidopsis thaliana) (UniProt Q9FJA2+Q9XGN1).
T2 sequence 1: T1 sequence
T2 sequence 2: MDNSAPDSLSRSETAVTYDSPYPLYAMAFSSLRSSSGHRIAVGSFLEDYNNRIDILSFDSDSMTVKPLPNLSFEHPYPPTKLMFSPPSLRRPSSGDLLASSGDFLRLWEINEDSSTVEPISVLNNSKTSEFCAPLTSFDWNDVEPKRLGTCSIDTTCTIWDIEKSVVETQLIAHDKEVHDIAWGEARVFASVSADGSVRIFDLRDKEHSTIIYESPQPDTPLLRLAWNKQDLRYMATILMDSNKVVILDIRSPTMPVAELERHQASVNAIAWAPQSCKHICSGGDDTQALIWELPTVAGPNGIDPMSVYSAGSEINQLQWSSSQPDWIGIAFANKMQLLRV
Kind of data set: EMSA. To be noted: LightShift Chemiluminescent EMSA kit (Pierce); buffer, salt, pH and temperature not stated.

The target of data set [4] is T3, MBP-TTG1 (TRANSPARENT TESTA GLABRA1) (Arabidopsis thaliana, UniProt Q9XGN1 1-341).
T3 construct: TRANSPARENT TESTA GLABRA1 (TTG1), Arabidopsis thaliana, WD40 repeat protein; cDNA cloned into pMAL-c2x; also called recombinant MBP-TTG1; source: E. coli Rossetta (DE3), IPTG-induced, soluble fusion protein on amylose resin (methods); called 'in vitro-translated' in the results for the GST pull-down
T3 sequence (looked up): T2 sequence 2
Kind of data set: pull-down; MBP, MBP-TTG1, MBP-TTG1^S215E and MBP-TTG1^S215A on amylose beads as baits; TT2-His as prey, detected with anti-His. As to conditions: both partners purified.

The target in another data set is T4, MBP-TTG1^S215A (Arabidopsis thaliana, UniProt Q9XGN1 1-341, S215A).
T4 construct: TRANSPARENT TESTA GLABRA1 (TTG1), Arabidopsis thaliana; mutated cDNA cloned into pMAL-c2x; source: E. coli Rossetta (DE3), soluble fusion protein immobilized on amylose beads
T4 sequence (looked up): T2 sequence 2 with S215A
The description is as above. As to conditions: both partners purified.

For data set [5], the target named is T3, MBP-TTG1 (TRANSPARENT TESTA GLABRA1). The experiment in a line: native gel or EMSA; EMSA supershift: recombinant MBP-TT2 and MBP-TTG1 incubated together with the biotinylated native GL2 probe (AC-rich motif). To be noted: both partners purified. For orientation: Mobility shift assays separate free from complexed probe on a gel.

Consider “ATAATATATAAGGAAGAAGGAGTGCGAGGAGAAGAGGGAAGAGATCATAATTAAGCAAAGAAGCTAGCTAGGGACAGGATTTGTATGTCAATGGCCGTCGACATGTCTTCAAAAAAAAAAAAAAAAGACTTTTTCTCCTCTCCAGCCCTCTCTCTATCTCTCGTATACTACTCTCTCTTTTCTACATACATGTACTTGCTAGCTCTCACATAAACATATATT (double strand) [GL2 mutated probe]”, for which, in data set [1], the binding result is “no binding”. In the case of “ATAATATATAAGGAAGAAGGAGTGCGAGGAGAAGAGGGAAGAGATCATAATTAAGCAAAGAAGCTAGCTAGGGACAGGATTTGTATGTCAATGGCCGTCGACATGTCTTCCAAACAACCCACCAAAGACTTTTTCTCCTCTCCAGCCCTCTCTCTATCTCTCGTATACTACTCTCTCTTTTCTACATACATGTACTTGCTAGCTCTCACATAAACATATATT (double strand) [GL2 native competitor]”, the binding entry in data set [2] is recorded as “binds”. Consider “ATAATATATAAGGAAGAAGGAGTGCGAGGAGAAGAGGGAAGAGATCATAATTAAGCAAAGAAGCTAGCTAGGGACAGGATTTGTATGTCAATGGCCGTCGACATGTCTTCCAAACAACCCACCAAAGACTTTTTCTCCTCTCCAGCCCTCTCTCTATCTCTCGTATACTACTCTCTCTTTTCTACATACATGTACTTGCTAGCTCTCACATAAACATATATT (double strand) [GL2 native probe]”, for which the binding result in data set [3] and in data set [1] was “binds” throughout.

B1: TT2-His (natural protein, Arabidopsis thaliana, UniProt Q9FJA2 1-258, looked up)
chain: T1 sequence
notes: TRANSPARENT TESTA2 (TT2; MYB123), Arabidopsis thaliana; cDNA cloned into pET28a; also called MYB123; source: E. coli Rossetta (DE3), IPTG-induced, soluble fusion protein
Consider B1, for which the binding result (in data set [4]; in the data set with MBP-TTG1^S215A) was “binds” each time.

B2: MBP-TT2 (natural protein, Arabidopsis thaliana, UniProt Q9FJA2 1-258, looked up)
chain: T1 sequence
notes: TRANSPARENT TESTA2 (TT2; MYB123), Arabidopsis thaliana; cDNA cloned into pMAL-c2x; also called MYB123; source: E. coli Rossetta (DE3), recombinant protein produced as for the pull-down assay
Take B2: the binding result in data set [5] is “binds”.

The values above are taken from article PMC5805785, “Site-specific phosphorylation of TRANSPARENT TESTA GLABRA1 mediates carbon partitioning in Arabidopsis seeds” (Nature Communications, 2018).
